Data on 27 molecules can be found in paper PMC9371724 (2022).

T1: HA69 peptide on HLA DQB1*06:02/DQA1*01:02 (DQ0602) (human)
T1 peptide: AMERNAGSGIIISDT

B1: TCR CALTMKTSYDKVIF / CASSIGTSGPDTQYF (TCR)
alpha TRAV9-2 TRAJ50 CDR3: CALTMKTSYDKVIF
beta TRBV19 TRBJ2-3 CDR3: CASSIGTSGPDTQYF
B2: TCR538 (TCR)
alpha TRAV4 TRAJ42 CDR3: CLVGAPSLYGGSQGNLIF
beta TRBV7-8 TRBJ2-1 CDR3: CASNPAGAVSYNEQFF
B3: TCR CAGKENSGGSNYKLTF / CASRVQGARAEAFF (TCR)
alpha TRAV25 TRAJ53 CDR3: CAGKENSGGSNYKLTF
beta TRBV19 TRBJ1-1 CDR3: CASRVQGARAEAFF
B4: TCR CILRDVLSNFGNEKLTF / CASSQASVSVDTQYF (TCR)
alpha TRAV26-2 TRAJ48 CDR3: CILRDVLSNFGNEKLTF
beta TRBV4-2 TRBJ2-3 CDR3: CASSQASVSVDTQYF
B5: TCR CVHNAGNMLTF / CASSFQGLSTDTQYF (TCR)
alpha TRAV25 TRAJ39 CDR3: CVHNAGNMLTF
beta TRBV12-3 TRBJ2-3 CDR3: CASSFQGLSTDTQYF
B6: TCR CAGRPNSGGSNYKLTF / CASSGQQALYGYTF (TCR)
alpha TRAV35 TRAJ53 CDR3: CAGRPNSGGSNYKLTF
beta TRBV19 TRBJ1-2 CDR3: CASSGQQALYGYTF
B7: TCR CAVSERGAQKLVF / CSAPSGGGRASGANVLTF (TCR)
alpha TRAV8-6 TRAJ54 CDR3: CAVSERGAQKLVF
beta TRBV20-1 TRBJ2-6 CDR3: CSAPSGGGRASGANVLTF
B8: TCR CIASGTYKYIF / CASSKGETGTQWSYEQYF (TCR)
alpha TRAV26-1 TRAJ40 CDR3: CIASGTYKYIF
beta TRBV4-2 TRBJ2-7 CDR3: CASSKGETGTQWSYEQYF
B9: TCR CATDAELGNKLVF / CASSQDRGRGTDTQYF (TCR)
alpha TRAV17 TRAJ47 CDR3: CATDAELGNKLVF
beta TRBV4-2 TRBJ2-3 CDR3: CASSQDRGRGTDTQYF
B10: TCR CAASRGTSYDKVIF / CSTQRLYNEQFF (TCR)
alpha TRAV13-1 TRAJ50 CDR3: CAASRGTSYDKVIF
beta TRBV29-1 TRBJ2-1 CDR3: CSTQRLYNEQFF
B11: …-1 (TCR)
alpha TRAV8-3 TRAJ24 CDR3: CAVGLTDSWGKLQF
beta TRBV19 TRBJ2-1 CDR3: CASSFSKNGNSYNEQFF
B12: TCR CASAYTGTASKLTF / CASSIDLGGRADGGYTF (TCR)
alpha TRAV17 TRAJ44 CDR3: CASAYTGTASKLTF
beta TRBV19 TRBJ1-2 CDR3: CASSIDLGGRADGGYTF
B13: TCR CAVNRADSWGKLQF / CASSIDKTGHSNQPQHF (TCR)
alpha TRAV12-2 TRAJ24 CDR3: CAVNRADSWGKLQF
beta TRBV19 TRBJ1-5 CDR3: CASSIDKTGHSNQPQHF
B14: TCR CAGRPNSGGSNYKLTF / CASSDQAAWAGYTF (TCR)
alpha TRAV35 TRAJ53 CDR3: CAGRPNSGGSNYKLTF
beta TRBV19 TRBJ1-2 CDR3: CASSDQAAWAGYTF
B15: TCR846 (TCR)
alpha TRAV8-6 TRAJ54 CDR3: CAVSESAQGAQKLVF
beta TRBV19 TRBJ2-3 CDR3: CASSRPGLNTDTQYF
B16: TCR CAASRGTSYDKVIF / CSATGLYNEQFF (TCR)
alpha TRAV13-1 TRAJ50 CDR3: CAASRGTSYDKVIF
beta TRBV20-1 TRBJ2-1 CDR3: CSATGLYNEQFF
B17: TCR CAAADTGNQFYF / CASSSHGQGNQPQHF (TCR)
alpha TRAV13-1 TRAJ49 CDR3: CAAADTGNQFYF
beta TRBV7-8 TRBJ1-5 CDR3: CASSSHGQGNQPQHF
B18: TCR CAAVGMNGGAQKLVF / CASRSQGWGTEAFF (TCR)
alpha TRAV13-1 TRAJ54 CDR3: CAAVGMNGGAQKLVF
beta TRBV19 TRBJ1-1 CDR3: CASRSQGWGTEAFF
B19: …-1 (TCR)
alpha TRAV8-6 TRAJ24 CDR3: CAVSEDDSWGKLQF
beta TRBV29-1 TRBJ1-6 CDR3: CSVARDRNSPLHF
B20: TCR CATGHTGANSKLTF / CASSLQGTPNGNQPQHF (TCR)
alpha TRAV17 TRAJ56 CDR3: CATGHTGANSKLTF
beta TRBV19 TRBJ1-5 CDR3: CASSLQGTPNGNQPQHF
B21: TCR CAATDTGNQFYF / CASSQHGQGNQPQHF (TCR)
alpha TRAV13-1 TRAJ49 CDR3: CAATDTGNQFYF
beta TRBV7-8 TRBJ1-5 CDR3: CASSQHGQGNQPQHF
B22: TCR285 (TCR)
alpha TRAV13-1 TRAJ49 CDR3: CAATPGRTGNQFYF
beta TRBV4-2 TRBJ2-5 CDR3: CASSQGQGDETQYF
B23: TCR108 (TCR)
alpha TRAV8-3 TRAJ24 CDR3: CAVGFTDSWGKLQF
beta TRBV19 TRBJ2-1 CDR3: CASSIDPSGNHYNEQFF
B24: TCR CAGRPTSGGSNYKLTF / CASSGGQAYYGYTF (TCR)
alpha TRAV35 TRAJ53 CDR3: CAGRPTSGGSNYKLTF
beta TRBV19 TRBJ1-2 CDR3: CASSGGQAYYGYTF
B25: TCR CAVSEKNTGFQKLVF / CASRKGLGDTDTQYF (TCR)
alpha TRAV8-6 TRAJ8 CDR3: CAVSEKNTGFQKLVF
beta TRBV6-1 TRBJ2-3 CDR3: CASRKGLGDTDTQYF
B26: TCR CAVGSTDSWGKLQF / CASRLDPTGHMNTEAFF (TCR)
alpha TRAV8-3 TRAJ24 CDR3: CAVGSTDSWGKLQF
beta TRBV19 TRBJ1-1 CDR3: CASRLDPTGHMNTEAFF
B27: TCR CAASRGTSYDKVIF / CSVDRYYNEQFF (TCR)
alpha TRAV13-1 TRAJ50 CDR3: CAASRGTSYDKVIF
beta TRBV29-1 TRBJ2-1 CDR3: CSVDRYYNEQFF

The test concerns the target T1, HA69 peptide on HLA …. Nature of the test: activation reporter or marker.
As to B1, the binding result is listed as “recognises”.

In the case of B2, the binding result is on record as “recognises”.

With B3, the binding result is listed as “recognises”.

For the molecule B4, the binding result is recorded as “recognises”.

With B5, the binding result is given as “recognises”.

Consider B6, for which the binding result was “recognises”.

On to B7, for which the binding result is “recognises”.

As for B8, the binding result was “recognises”.

B9: the binding result is “recognises”.

As for B10, the binding result is on record as “recognises”.

As for B11, the binding result is “no recognition”.

In the case of B12, the binding result is reported as “recognises”.

Take B13: the binding result is listed as “recognises”.

For B14, the binding result is on record as “recognises”.

As to B15, the binding result is recorded as “recognises”.

In the case of B16, the binding result was “recognises”.

On to B17, for which the binding result was “recognises”.

For the molecule B18, the binding result was “recognises”.

With B19, the binding result was “no recognition”.

For the molecule B20, the binding result is reported as “recognises”.

Consider B21, for which the binding result is reported as “recognises”.

Regarding B22, the binding result is “recognises”.

Turning to B23, the binding result is “recognises”.

Turning to B24, the binding result was “recognises”.

For B25, the binding result was “recognises”.

Regarding B26, the binding result is given as “recognises”.

With B27, the binding result is on record as “recognises”.
